# Source: IntAct's records for PubMed 11297558
# B1: Adhesion G protein-coupled receptor E5 (Homo sapiens), P48960 (parent)
# chain: MGGRVFLAFCVWLTLPGAETQDSRGCARWCPQNSSCVNATACRCNPGFSSFSEIITTPTETCDDINECATPSKVSCGKFSDCWNTEGSYDCVCSPGYEPVSGAKTFKNESENTCQDVDECQQNPRLCKSYGTCVNTLGSYTCQCLPGFKFIPEDPKVCTDVNECTSGQNPCHSSTHCLNNVGSYQCRCRPGWQPIPGSPNGPNNTVCEDVDECSSGQHQCDSSTVCFNTVGSYSCRCRPGWKPRHGIPNNQKDTVCEDMTFSTWTPPPGVHSQTLSRFFDKVQDLGRDSKTSSAEVTIQNVIKLVDELMEAPGDVEALAPPVRHLIATQLLSNLEDIMRILAKSLPKGPFTYISPSNTELTLMIQERGDKNVTMGQSSARMKLNWAVAAGAEDPGPAVAGILSIQNMTTLLANASLNLHSKKQAELEEIYESSIRGVQLRRLSAVNSIFLSHNNTKELNSPILFAFSHLESSDGEAGRDPPAKDVMPGPRQELLCAFWKSDSDRGGHWATEGCQVLGSKNGSTTCQCSHLSSFAILMAHYDVEDWKLTLITRVGLALSLFCLLLCILTFLLVRPIQGSRTTIHLHLCICLFVGSTIFLAGIENEGGQVGLRCRLVAGLLHYCFLAAFCWMSLEGLELYFLVVRVFQGQGLSTRWLCLIGYGVPLLIVGVSAAIYSKGYGRPRYCWLDFEQGFLWSFLGPVTFIILCNAVIFVTTVWKLTQKFSEINPDMKKLKKARALTITAIAQLFLLGCTWVFGLFIFDDRSLVLTYVFTILNCLQGAFLYLLHCLLNKKVREEYRKWACLVAGGSKYSEFTSTTSGTGHNQTRALRASESGI
# B2: Adhesion G protein-coupled receptor E2 (Homo sapiens), Q9UHX3 (parent)
# chain: MGGRVFLVFLAFCVWLTLPGAETQDSRGCARWCPQDSSCVNATACRCNPGFSSFSEIITTPMETCDDINECATLSKVSCGKFSDCWNTEGSYDCVCSPGYEPVSGAKTFKNESENTCQDVDECQQNPRLCKSYGTCVNTLGSYTCQCLPGFKLKPEDPKLCTDVNECTSGQNPCHSSTHCLNNVGSYQCRCRPGWQPIPGSPNGPNNTVCEDVDECSSGQHQCDSSTVCFNTVGSYSCRCRPGWKPRHGIPNNQKDTVCEDMTFSTWTPPPGVHSQTLSRFFDKVQDLGRDYKPGLANNTIQSILQALDELLEAPGDLETLPRLQQHCVASHLLDGLEDVLRGLSKNLSNGLLNFSYPAGTELSLEVQKQVDRSVTLRQNQAVMQLDWNQAQKSGDPGPSVVGLVSIPGMGKLLAEAPLVLEPEKQMLLHETHQGLLQDGSPILLSDVISAFLSNNDTQNLSSPVTFTFSHRSVIPRQKVLCVFWEHGQNGCGHWATTGCSTIGTRDTSTICRCTHLSSFAVLMAHYDVQEEDPVLTVITYMGLSVSLLCLLLAALTFLLCKAIQNTSTSLHLQLSLCLFLAHLLFLVAIDQTGHKVLCSIIAGTLHYLYLATLTWMLLEALYLFLTARNLTVVNYSSINRFMKKLMFPVGYGVPAVTVAISAASRPHLYGTPSRCWLQPEKGFIWGFLGPVCAIFSVNLVLFLVTLWILKNRLSSLNSEVSTLRNTRMLAFKATAQLFILGCTWCLGILQVGPAARVMAYLFTIINSLQGVFIFLVYCLLSQQVREQYGKWSKGIRKLKTESEMHTLSSSAKADTSKPSTVN
# Variants of: B1
# Settings: with daf_human CD55, P08174
# Chain of daf_human CD55, P08174 (P08174 whole entry): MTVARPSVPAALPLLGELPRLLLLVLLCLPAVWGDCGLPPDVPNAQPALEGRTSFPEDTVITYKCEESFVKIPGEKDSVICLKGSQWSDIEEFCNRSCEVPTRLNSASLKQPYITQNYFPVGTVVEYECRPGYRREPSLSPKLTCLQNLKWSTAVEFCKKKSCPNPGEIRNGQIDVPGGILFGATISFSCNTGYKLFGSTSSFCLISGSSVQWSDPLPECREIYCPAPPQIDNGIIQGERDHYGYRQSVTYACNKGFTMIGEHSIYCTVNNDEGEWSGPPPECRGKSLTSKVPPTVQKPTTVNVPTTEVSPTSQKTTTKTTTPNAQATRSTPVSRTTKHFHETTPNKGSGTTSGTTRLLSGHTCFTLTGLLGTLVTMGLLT
row,Variant,effect of a mutation on the interaction
1,N33D,decreasing interaction strength
2,T59M,decreasing interaction strength
3,P71L,decreasing interaction strength

# Variants of: B2
# Settings: with daf_human CD55, P08174
row,Variant,effect of a mutation on the interaction
1,L74P,causing an interaction
2,M62T,causing an interaction
3,D36N,causing an interaction
